# Data taken from paper PMC10162664, “Microbial β-glucuronidases drive human periodontal disease etiology” (Science Advances, 2023).
# B1: human GUS (β-glucuronidase) (Homo sapiens) (protein)
# chain: LQGGMLYPQESPSRECKELDGLWSFRADFSDNRRRGFEEQWYRRPLWESGPTVDMPVPSSFNDISQDWRLRHFVGWVWYEREVILPERWTQDLRTRVVLRIGSAHSYAIVWVNGVDTLEHEGGYLPFEADISNLVQVGPLPSRLRITIAINNTLTPTTLPPGTIQYLTDTSKYPKGYFVQNTYFDFFNYAGLQRSVLLYTTPTTYIDDITVTTSVEQDSGLVNYQISVKGSNLFKLEVRLLDAENKVVANGTGTQGQLKVPGVSLWWPYLMHERPAYLYSLEVQLTAQTSLGPVSDFYTLPVGIRTVAVTKSQFLINGKPFYFHGVNKHEDADIRGKGFDWPLLVKDFNLLRWLGANAFRTSHYPYAEEVMQMCDRYGIVVIDECPGVGLALPQFFNNVSLHHHMQVMEEVVRRDKNHPAVVMWSVANEPASHLESAGYYLKMVIAHTKSLDPSRPVTFVSNSNYAADKGAPYVDVICLNSYYSWYHDYGHLELIQLQLATQFENWYKKYQKPIIQSEYGAETIAGFHQDPPLMFTEEYQKSLLEQYHLGLDQKRRKYVVGELIWNFADFMTEQSPTRVLGNKKGIFTRQRQPKSAAFLLRERYWKIANETRYPHSVAKSQCLENSLFT
# What was measured:
# [1] = biological target: Tannerella forsythia GUS mL1 (mini-loop 1 β-glucuronidase) (Tannerella forsythia); assay: SEC-MALS; Superdex 200; protein at 2 mg/ml in 20 mM Hepes (pH 7.4), 300 mM NaCl; 50 μl injected, 0.5 ml/min
# [2] = biological target: Tannerella forsythia GUS mL1 (mini-loop 1 β-glucuronidase) (Tannerella forsythia); assay: crystal structure; hanging drop vapor diffusion at room temperature; quaternary structure seen in the crystal
# [3] = biological target: T1, TlGUS L1 (Treponema lecithinolyticum β-glucuronidase) (Treponema lecithinolyticum, UniProt A0AA82WPE8); assay: […] Å crystal structure (as UNC4917-GlcA conjugate formed with PNPG); 4-MUG hydrolysis IC50; format: biochemical
# T1 construct: recombinant, N-terminal (His)6 tag retained
# [4] = tested on: Cc1cc(=O)oc2cc(O[C@@H]3O[C@H](C(=O)O)[C@@H](O)[C@H](O)[C@H]3O)ccc12; assay: purified protein; settings: pH 5.0
# [5] = biological target: T1, TlGUS L1 (Treponema lecithinolyticum β-glucuronidase); assay: […] Å crystal structure; format: binding
# [6] = biological target: T1, TlGUS L1 (Treponema lecithinolyticum β-glucuronidase); assay: […] Å crystal structure (as ciprofloxacin-GlcA conjugate formed with PNPG); IC50; format: biochemical
# [7] = biological target: Treponema lecithinolyticum GUS L1 (loop 1 β-glucuronidase) (Treponema lecithinolyticum); assay: SEC-MALS; Superdex 200; protein at 2 mg/ml in 20 mM Hepes (pH 7.4), 300 mM NaCl; 50 μl injected, 0.5 ml/min
# [8] = biological target: Treponema lecithinolyticum GUS L1 (loop 1 β-glucuronidase) (Treponema lecithinolyticum); assay: crystal structure; hanging drop vapor diffusion at room temperature; quaternary structure seen in the crystal
# [9] = biological target: Tannerella forsythia GUS L2 (loop 2 β-glucuronidase) (Tannerella forsythia); assay: SEC-MALS; Superdex 200; protein at 2 mg/ml in 20 mM Hepes (pH 7.4), 300 mM NaCl; 50 μl injected, 0.5 ml/min
# [10] = biological target: Tannerella forsythia GUS L2 (loop 2 β-glucuronidase) (Tannerella forsythia); assay: crystal structure; hanging drop vapor diffusion at room temperature; quaternary structure seen in the crystal
# purified protein = substrate: Cc1cc(=O)oc2cc(O[C@@H]3O[C@H](C(=O)O)[C@@H](O)[C@H](O)[C@H]3O)ccc12; assay: purified protein; settings: pH 5.0; remark: listed apart in the source
molecule,measurement,setting,value
Tannerella forsythia GUS mL1 (mini-loop 1 β-glucuronidase) (enzyme),stoichiometry N,[1],4
same,stoichiometry N,[2],4
CNc1ccc2c(n1)sc1c(N3CCNCC3)nc(NC)nc12 [UNC4917],IC50,[3],2.5 µM
TlGUS L1 (Treponema lecithinolyticum β-glucuronidase) (Treponema lecithinolyticum),Km,[4],6.8 ± 1 µM
same,kcat,[4],19 ± 1 s⁻¹
same,kcat/Km,[4],2.8e+06 M⁻¹ s⁻¹
"CNc1ccc2c(n1)sc1c(N3CCN([C@@H]4O[C@H](C(=O)O)[C@@H](O)[C@H](O)[C@H]4O)CC3)nc(NC)nc12 [UNC4917-GlcA, UNC4917-GlcA conjugate]",1.75 Å crystal structure,[5],The UNC4917-GlcA conjugate is located within the active site
O=C(O)c1cn(C2CC2)c2cc(N3CCNCC3)c(F)cc2c1=O [ciprofloxacin],IC50,[6],18.3 µM
Treponema lecithinolyticum GUS L1 (loop 1 β-glucuronidase) (enzyme),stoichiometry N,[7],4
same,stoichiometry N,[8],4
Tannerella forsythia GUS L2 (loop 2 β-glucuronidase) (enzyme),stoichiometry N,[9],2
same,stoichiometry N,[10],2
B1,Km,purified protein,84 ± 7 µM
same,kcat,purified protein,2.2 s⁻¹
same,kcat/Km,purified protein,26000 M⁻¹ s⁻¹
